Experimental data from US20140112930A1 (published 2014).

T1: wild-type human Ang-2 (hAng-2-WT) (human, UniProt O15123 19-496)
T1 construct: called full-length wild-type; also called Full-length wild-type human Ang-2
T1 sequence: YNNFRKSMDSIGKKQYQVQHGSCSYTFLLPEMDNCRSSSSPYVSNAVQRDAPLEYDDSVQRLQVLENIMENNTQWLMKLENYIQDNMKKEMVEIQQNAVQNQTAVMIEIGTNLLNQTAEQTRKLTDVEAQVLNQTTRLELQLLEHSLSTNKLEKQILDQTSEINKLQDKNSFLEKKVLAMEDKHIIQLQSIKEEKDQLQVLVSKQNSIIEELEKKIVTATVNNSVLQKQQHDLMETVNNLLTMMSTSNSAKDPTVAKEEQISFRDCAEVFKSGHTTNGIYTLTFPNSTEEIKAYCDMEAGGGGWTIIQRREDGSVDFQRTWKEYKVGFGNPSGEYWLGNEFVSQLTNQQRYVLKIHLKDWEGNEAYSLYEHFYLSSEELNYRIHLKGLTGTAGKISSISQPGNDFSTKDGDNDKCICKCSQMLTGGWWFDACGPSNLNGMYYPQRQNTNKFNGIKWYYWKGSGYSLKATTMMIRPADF

T2: Monomeric hAng-2FD (human, UniProt O15123 282-496)
T2 construct: also called fibrinogen-like domain of human Ang2; Human Ang-2FD
T2 sequence: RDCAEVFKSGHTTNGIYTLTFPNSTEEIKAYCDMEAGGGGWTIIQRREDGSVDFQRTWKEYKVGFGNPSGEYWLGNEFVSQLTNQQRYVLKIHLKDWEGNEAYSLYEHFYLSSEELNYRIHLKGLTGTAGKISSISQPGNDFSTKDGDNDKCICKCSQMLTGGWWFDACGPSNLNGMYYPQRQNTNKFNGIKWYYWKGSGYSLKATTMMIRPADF


Columns and labels:
[1] = molecular target: T1, wild-type human Ang-2 (hAng-2-WT); assay: SPR, captured Ab
[2] = molecular target: T2, Monomeric hAng-2FD; assay: SPR, captured Ab
[3] = molecular target: T3, Dimeric Human Ang-2FD conjugated to human IgG1 (human); assay: SPR, captured Ab, RT
T3 construct: also called Human Ang-2FD-hFc; hAng-2FD-hFc
Description: (§1) Antibody was captured on a goat anti-mouse IgG polyclonal antibody surface, a goat anti-human κ polyclonal antibody (Southern Biotech, Birmingham, Ala.) surface or a goat anti-human IgG polyclonal antibody (Jackson Immuno Research Lab, West Grove, Pa.) surface created through direct amine coupling to a BIACORE™ CM5 sensor chip to form a captured antibody surface. […] Antigen-antibody binding and dissociation were monitored in real time at room temperature. Kinetic analysis was performed to calculate KD and half-life of antigen/antibody complex dissociation.

[4] = molecular target: T4, Dimeric Mouse Ang-2FD conjugated to human IgG1 (mouse (Mus musculus); human); assay: SPR, captured Ab, RT
T4 construct: also called Mouse Ang-2FD-hFc
Description: as §1

[5] = molecular target: T5, Dimeric Monkey Ang-2FD conjugated to human IgG1 (monkey (Macca fascicularis); human); assay: SPR, captured Ab, RT
T5 construct: also called Monkey Ang-2FD-hFc
Description: as §1

[6] = molecular target: T6, human bow-Ang-2 tetrameric construct (hBA2) (human); assay: SPR, captured Ab
T6 construct: also called human BA2; hBA2-hIgG1

[7] = molecular target: T3, Dimeric Human Ang-2FD conjugated to …; assay: competition ELISA, 16.67 nM Ab, coated hTie-2-mFc
Description: (§2) The plate was then blocked with PBS (Irvine Scientific, Santa Ana, Calif.) containing 0.5% BSA (Sigma-Aldrich Corp., St. Louis, Mo.) for one hour at room temperature. […] Human, mouse or monkey Ang-2FD protein conjugated to human IgG (Ang-2FD-hFc) were added to final concentrations of 2 nM, 8 nM, or 2 nM respectively and incubated for one hour at room temperature. The antibody/Ang-2FD-Fc mixture was then added to the plate containing hTie-2-mFc and incubated for one hour at room temperature. Detection of Ang-2FD-hFc bound to hTie-2-mFc protein was determined with Horse-Radish Peroxidase (HRP) conjugated to a-human IgG antibody (Jackson Immuno Research Lab, West Grove, Pa.) and developed by standard colorimetric response using tetramethylbenzidine (TMB) substrate (BD Biosciences, San Jose, Calif.). Absorbance was read at OD₄₅₀ for 0.1 sec.

[8] = molecular target: T4, Dimeric Mouse Ang-2FD conjugated to …; assay: competition ELISA, 16.67 nM Ab, coated hTie-2-mFc
Description: as §2

[9] = molecular target: T5, Dimeric Monkey Ang-2FD conjugated to …; assay: competition ELISA, 16.67 nM Ab, coated hTie-2-mFc
Description: as §2

Row | Kd [1] [nM] | T1/2 [1] [h] | Kd [2] [nM] | Kd [3] [nM] | T1/2 [3] [h] | Kd [4] [nM] | T1/2 [4] [h] | Kd [5] [nM] | T1/2 [5] [h] | Kd [6] [nM] | T1/2 [6] [h] | T1/2 [2] [h] | Percent Blocking of Ang-2FD Binding to Tie-2 [7] [%] | Percent Blocking of Ang-2FD Binding to Tie-2 [8] [%] | Percent Blocking of Ang-2FD Binding to Tie-2 [9] [%] | Binder
1 | 0.0311 | 29.5 | 1.12 | 0.245 | 2.45 | 0.347 | 2.07 | 0.44 | 1.4 | 0.0401 | 4.24 |  |  |  |  | H1H695P (antibody, V domains shown) VH: QVQLVESGGGVVQPGRSLRLSCAASGFTFSSYGMHWVRQAPGKGLEWVAVMWYDETNKYYADSVKGRFTISRDNSKNTLYLQMNSLRAEDTAVYYCARYSGYEDYYHGMDVWGQGTTVTVS VL: EIVMTQSPATPSVSPGERATLSCRASQSISSNLAWYQQKPGQAPRLLIYGASTRATGIPARFSGSGSGTEFTLTISSLQSEDFAVYYCQHYNNWITFGQGTRLEIK
2 | 0.0331 | 9.47 | 1.75 | 0.179 | 0.712 | 0.694 | 0.267 | 0.73 | 0.428 |  |  | 0.29 | 99.5 | 96.6 | 95.2 | H1M724N (antibody, V domains shown) VH: QVQLVESGGGVVQPGRSLRLSCAASGFTLSNYGMHWVRQAPGKGLEWVAVIWHDGSNTYYADSVKGRFTISRDNSKNTLYLQMNSLRAEDTAVYYCTREGLDFWSGYYPNWFDPWGQGTLVTVSS VL: DIQMTQSPSSLSASVGDRVTITCRASQGIRNDLGWYQQKPGKAPKRLIYAASNLQGGVPSRFSGSGSGTEFTLTISSLQPEDFAAYYCLQHNIYPLTFGGGTKVEIK
3 | 0.0124 | 26.1 | 0.594 | 0.079 | 2.1 | 0.0913 | 1.75 | 0.0556 | 3.25 | 0.0179 | 4.99 | 0.419 |  |  |  | H1H690P (antibody, V domains shown) VH: EVQLVESGGGLVQPGESLRLSCAASGFTFSSYAMSWVRQGPGKGLEWVSSITGSGDTTYYADSVKGRFTISRDNSKNTLYLHMNSLRAEDTAVYYCAKDFLDYSTYLAFDLWGQGTMVTVSS VL: EIVLTQSPATLSLSPGERATLSCRASQSVSSYLTWYQQKPGQAPRLLSYDASNRATGIPARFSGSGSGTDFTLTISSLEPEDFAVYYCQQRSNWPLTFGGGTKVEIK
4 | 0.425 | 1.67 | 44.8 | 0.5 | 0.618 | 0.446 | 1.06 | 1.17 | 0.293 | 0.299 | 0.478 | 0.0102 |  |  |  | H1H693P (antibody, V domains shown) VH: EVQLVESGGGLVQPGESLRLSCAASGFTFSSYAMSWVRQGPGKGLEWVSSISGSGGTTYYADSVEGRFTISRDNSKNTLYLHMNSLRAEDTAVYYCAKDFLDYSTYLAFDLWGQGTMVTVSS VL: DIQMTQSPSSVSASVGDRVTITCRASQGISSWLAWYQQKPGKAPKLLIYAASSLQSGVPSRFSGSGSGTDFTLTISSLQPEDFATYYCQQANSFPRTFGQGTKVEIK
